In the supplement of paper PMC10724198:
± gives the standard deviation of the averaged measurements.

system: Saccharomyces cerevisiae; test: protein stability index of tFT-peptide fusion (C-terminal peptide) (PSI (0-1 scale)); higher = more stable (slower turnover); conditions: genetic background: wild type; temperature: 30 C
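Further: PSI is a weighted mean of sequencing reads over stability bins, variants kept only with over 10 reads, mCherry proximal and sfGFP distal, peptide attached via GGGS linker.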

Sequence	protein stability index
SEILFRSSPFPI	0.721 ± 0.09
HRKKTKNVTHVK	0.6485 ± 0.0062
GYPSLYCLSVFM	0.6155 ± 0.0058
LSILVGDREGSV	0.753 ± 0.13
PSDSRSTPPTPD	0.698 ± 0.033
TTYKRRTSKTLS	0.679 ± 0.024
EVGGGVGGRRLM	0.636 ± 0.0099
LCLREPTITTQW	0.786 ± 0.3
TVKYVVSTRAFI	0.627 ± 0.044
PASPPSPLLLSL	0.74 ± 0.066
PQIRTPIPGSFS	0.743 ± 0.074
VLRARQGVREPP	0.526 ± 0.01
VCDFVLALRGLT	0.649 ± 0.029
PSFVIQRCPMIL	0.606 ± 0.076
VPPSKQRSRIKD	0.675 ± 0.028
RSSSLRRGIGQR	0.688 ± 0.071
SPLGAADTRQEP	0.687 ± 0.025
PSPLPPPPLPLS	0.5739 ± 0.0048
VSEGFVLGGSCG	0.663 ± 0.0074
LRARSSKPPYWL	0.737 ± 0.028
VGLLLAGKIVTY	0.604 ± 0.033
LDSGSVYMSRDI	0.652 ± 0.015
VDIKQDTTNLRL	0.718 ± 0.0086
TRLSTPGYLILS	0.724 ± 0.016
VHTCVSYTNCMD	0.703 ± 0.026
PTIPLLPPPLPP	0.622 ± 0.022

Sequence	protein stability index
PAPPPLPSSSPP	0.696 ± 0.0019
LCFGGLVLFSFG	0.601 ± 0.035
PPPLPSSPSPLL	0.679 ± 0.022
PSHRPWPPTRPP	0.677 ± 0.033
ITIVIKQNVDKE	0.564 ± 0.016
KCLDSARSSVLP	0.651 ± 0.043
SGYKVYNSVHIL	0.602 ± 0.026
PLLPYPFPPPLS	0.784 ± 0.04
GGCVSRPLGRCV	0.648 ± 0.088
GPRQGVLEAASS	0.636 ± 0.025
RSGPLFPLSCPP	0.767 ± 0.026
LSARPFPPLMYS	0.6968 ± 0.0025
RVGSGCFVGIFC	0.577 ± 0.024
WGWGWWEMVGRT	0.674 ± 0.0039
GTFCLFTPCVWM	0.716 ± 0.044
SSDLTKKCNRLR	0.673 ± 0.023
GENAIVEVWAGG	0.686 ± 0.022
RLSFAWGGLLVV	0.523 ± 0.0057
PVSSPSSPLPPL	0.678 ± 0.054
LVYLQVFSSLLS	0.543 ± 0.014
PPAFPPPPSPPP	0.636 ± 0.091
CIYPYSSLLMRI	0.532 ± 0.028
FCDFSPPARSFP	0.76 ± 0.072
GSSPRVFPPRFC	0.725 ± 0.033
FGRSHPFWVVDV	0.697 ± 0.025
ILGQLHKHFKTS	0.546 ± 0.046

Sequence	protein stability index
SVEAGHVAERES	0.732 ± 0.061
ADPNDSPPPASP	0.617 ± 0.026
FSSPLLLFHLPV	0.663 ± 0.04
FTLCPARALSLC	0.552 ± 0.024
PPAPLHLPSLPR	0.705 ± 0.018
RSFPSPPASLLL	0.66 ± 0.062
GVIGFNSLYGIA	0.632 ± 0.027
TIKNKKRKPKKK	0.702 ± 0.044
PPLKPRTSRPTI	0.682 ± 0.009
VQKITRLVDKVV	0.813 ± 0.065
LCVVRGLLCSPL	0.628 ± 0.0092
GTCQALARRTGD	0.686 ± 0.061
SGEVMGAMVLHE	0.773 ± 0.12
DNMKLILNGYNL	0.658 ± 0.03
PPPSTGGTRSNV	0.6809 ± 0.0051
PAPRPPSPLSAP	0.687 ± 0.039
QSQMEKGTIVWT	0.705 ± 0.011
TVCGWSHLFVYN	0.669 ± 0.026
GGGWGRSKTETT	0.672 ± 0.023
LTGAQPTDPNMR	0.697 ± 0.071
EERAGTRGGRGR	0.743 ± 0.13
PPPRPPLPPPPS	0.727 ± 0.034
ARPAPPDNVHRN	0.626 ± 0.069
KKKKKKQEKNKK	0.694 ± 0.042
SCLPSDRLTYLP	0.714 ± 0.014
FNPPPLLLPPPP	0.639 ± 0.013

Sequence	protein stability index
GISPDGSSIMAA	0.689 ± 0.02
RPTPSAPHRTRI	0.735 ± 0.041
SALPPSRLPRSP	0.713 ± 0.049
VSGSSAIFLLWC	0.706 ± 0.1
KSNRCVQSKRQQ	0.686 ± 0.037
PPRRPSFAPPHL	0.704 ± 0.014
GRGGGVGLVVGG	0.683 ± 0.019
LPLPPPPAPPPL	0.7015 ± 0.0012
PGPPSPPPPLYP	0.6783 ± 0.0056
SLPRPYPQKVTG	0.621 ± 0.015
PHTLPPLPVSPT	0.67 ± 0.05
PRPVRAVEMLTL	0.715 ± 0.029
RGGGGRGGSEGS	0.686 ± 0.017
TLFPPLCVFSFC	0.587 ± 0.03
LLRFRSFPSAFF	0.723 ± 0.084
PSTSHLALSWSV	0.703 ± 0.065
TAMNNGNSIHKL	0.682 ± 0.041
GRESGNPGEPTC	0.678 ± 0.012
FPSSALPPRLSL	0.7409 ± 0.0072
GLGGYVIKYIMI	0.572 ± 0.02
PRYRTPPLPPPG	0.55 ± 0.012
CGWMVSAGRLGG	0.655 ± 0.022
LPLVSLLCLLPR	0.668 ± 0.038
